Laboratory results published in paper PMC10539519, “Computational remodeling of an enzyme conformational landscape for altered substrate selectivity” (Nature Communications, 2023).

T1: E. coli aspartate aminotransferase (AAT) (Escherichia coli, UniProt P00509)
T1 construct: gene aspC; full-length, N-terminal His-tag, expressed in E. coli BL21-Gold (DE3), Ni-NTA purified; 90 kDa homodimer, PLP-dependent
T1 sequence (P00509 1-396): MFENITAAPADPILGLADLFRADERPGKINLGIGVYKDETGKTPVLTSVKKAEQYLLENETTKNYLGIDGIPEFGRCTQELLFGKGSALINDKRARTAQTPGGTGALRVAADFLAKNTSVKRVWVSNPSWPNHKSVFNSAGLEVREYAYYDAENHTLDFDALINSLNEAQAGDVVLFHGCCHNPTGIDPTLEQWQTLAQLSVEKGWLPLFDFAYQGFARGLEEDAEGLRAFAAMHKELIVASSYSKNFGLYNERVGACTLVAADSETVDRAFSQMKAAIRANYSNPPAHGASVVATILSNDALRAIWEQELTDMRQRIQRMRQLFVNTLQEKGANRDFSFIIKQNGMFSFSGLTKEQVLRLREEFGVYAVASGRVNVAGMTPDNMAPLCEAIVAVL


Columns and labels:
[1] = molecular target: T1, E. coli aspartate aminotransferase (AAT); assay: room-temperature X-ray crystallography; format: binding
[2] = substrate: O=C(O)CCC(=O)C(=O)O; assay: purified protein; format: biochemical, Escherichia coli; conditions: α-ketoglutarate varied 0.002–20 mM, co-substrate 10–20 mM L-aspartate or L-phenylalanine, substrate inhibition, 16 µM PLP, pH 8, 37 °C
[3] = substrate: N[C@@H](CC(=O)O)C(=O)O; assay: purified protein; conditions: co-substrate α-ketoglutarate (fixed, 0.1563–1.25 mM range), 16 µM PLP, 5 mM NAD+, 100 mM potassium phosphate pH 8, 37 °C
[4] = substrate: N[C@@H](Cc1ccccc1)C(=O)O; assay: purified protein; format: biochemical, Escherichia coli; conditions: co-substrate α-ketoglutarate (fixed, 0.1563–1.25 mM range), 16 µM PLP, 5 mM NAD+, 100 mM potassium phosphate pH 8, 37 °C
[5] = molecular target: the molecule itself; assay: crystal structure; X-ray crystallography, space group P 6_(3), two chains in the asymmetric unit; crystals grown with 20 mM maleate and ammonium sulfate, with or without soaking to remove maleate; data at 278 K (AIFS at 100 K; WT, HEX, VFIT also at 303 K)

Row | Molecule | room-temperature X-ray crystallography ([1]; co-crystallised with 20 mM maleate, 278 K, contacts Arg280 and Arg374, closed conformation) | room-temperature X-ray crystallography ([1]; covalent internal aldimine with K246, 10 µM PLP in crystallisation) | Km [2] [µM] | kcat [2] [s–1] | Km [3] [µM] | kcat [3] [s⁻¹] | kcat/Km [3] [M⁻¹ s⁻¹] | Km [4] [µM] | kcat [4] [s⁻¹] | kcat/Km [4] [M⁻¹ s⁻¹] | stoichiometry N [5]
1 | O=C(O)/C=C\C(=O)O [maleate] | electrostatic interactions between maleate and the side chains of Arg280 and Arg374 |  |  |  |  |  |  |  |  |  | 
2 | Cc1ncc(COP(=O)(O)O)c(C=O)c1O [pyridoxal phosphate] |  | Restraints for PLP in its internal aldimine form were generated using phenix.elbow |  |  |  |  |  |  |  |  | 
3 | E. coli aspartate aminotransferase (AAT) (Escherichia coli K-12) (protein, full-length, N-terminal His-tag, expressed in E. coli BL21-Gold (DE3), Ni-NTA purified; 90 kDa homodimer, PLP-dependent) MFENITAAPADPILGLADLFRADERPGKINLGIGVYKDETGKTPVLTSVKKAEQYLLENETTKNYLGIDGIPEFGRCTQELLFGKGSALINDKRARTAQTPGGTGALRVAADFLAKNTSVKRVWVSNPSWPNHKSVFNSAGLEVREYAYYDAENHTLDFDALINSLNEAQAGDVVLFHGCCHNPTGIDPTLEQWQTLAQLSVEKGWLPLFDFAYQGFARGLEEDAEGLRAFAAMHKELIVASSYSKNFGLYNERVGACTLVAADSETVDRAFSQMKAAIRANYSNPPAHGASVVATILSNDALRAIWEQELTDMRQRIQRMRQLFVNTLQEKGANRDFSFIIKQNGMFSFSGLTKEQVLRLREEFGVYAVASGRVNVAGMTPDNMAPLCEAIVAVL |  |  | 65 ± 5 | 12.2 ± 0.3 | 210 ± 30 | 7.8 | 37000 ± 5000 |  |  |  | 
4 | E. coli aspartate aminotransferase (AAT) (Escherichia coli K-12; K37I/N64S/T43F/V35A) (protein, full-length, N-terminal His-tag, expressed in E. coli BL21-Gold (DE3), Ni-NTA purified; 90 kDa homodimer, PLP-dependent) MFENITAAPADPILGLADLFRADERPGKINLGIGAYIDETGKFPVLTSVKKAEQYLLENETTKSYLGIDGIPEFGRCTQELLFGKGSALINDKRARTAQTPGGTGALRVAADFLAKNTSVKRVWVSNPSWPNHKSVFNSAGLEVREYAYYDAENHTLDFDALINSLNEAQAGDVVLFHGCCHNPTGIDPTLEQWQTLAQLSVEKGWLPLFDFAYQGFARGLEEDAEGLRAFAAMHKELIVASSYSKNFGLYNERVGACTLVAADSETVDRAFSQMKAAIRANYSNPPAHGASVVATILSNDALRAIWEQELTDMRQRIQRMRQLFVNTLQEKGANRDFSFIIKQNGMFSFSGLTKEQVLRLREEFGVYAVASGRVNVAGMTPDNMAPLCEAIVAVL |  |  |  |  | 320 ± 30 | 2.42 | 7600 | 2600 ± 200 | 0.54 ± 0.01 | 210 ± 20 | 
5 | E. coli aspartate aminotransferase hexamutant HEX (enzyme, imine bond between PLP and K246 (internal aldimine), aspartate aminotransferase (AAT), Escherichia coli, UniProt P00509, with six mutations; T104S and N285S are T109S and N297S in the numbering of PDB 1AHE and 1AHY; Mutant genes were ligated into pET-11a; the proteins were purified on Ni-NTA; source: E. coli BL21-Gold (DE3), purified (Ni-NTA, gel filtration)) MFENITAAPADPILGLADLFRADERPGKINLGIGLYYDETGKIPVLTSVKKAEQYLLENETTKLYLGIDGIPEFGRCTQELLFGKGSALINDKRARTAQTPGGSGALRVAADFLAKNTSVKRVWVSNPSWPNHKSVFNSAGLEVREYAYYDAENHTLDFDALINSLNEAQAGDVVLFHGCCHNPTGIDPTLEQWQTLAQLSVEKGWLPLFDFAYQGFARGLEEDAEGLRAFAAMHKELIVASSYSKNFGLYNERVGACTLVAADSETVDRAFSQMKAAIRANYSSPPAHGASVVATILSNDALRAIWEQELTDMRQRIQRMRQLFVNTLQEKGANRDFSFIIKQNGMFSFSGLTKEQVLRLREEFGVYAVASGRVNVAGMTPDNMAPLCEAIVAVL |  |  |  |  |  |  |  |  |  |  | 2
6 | E. coli aspartate aminotransferase (AAT) (Escherichia coli K-12; K37F/N64Y/T43I) (protein, full-length, N-terminal His-tag, expressed in E. coli BL21-Gold (DE3), Ni-NTA purified; 90 kDa homodimer, PLP-dependent) MFENITAAPADPILGLADLFRADERPGKINLGIGVYFDETGKIPVLTSVKKAEQYLLENETTKYYLGIDGIPEFGRCTQELLFGKGSALINDKRARTAQTPGGTGALRVAADFLAKNTSVKRVWVSNPSWPNHKSVFNSAGLEVREYAYYDAENHTLDFDALINSLNEAQAGDVVLFHGCCHNPTGIDPTLEQWQTLAQLSVEKGWLPLFDFAYQGFARGLEEDAEGLRAFAAMHKELIVASSYSKNFGLYNERVGACTLVAADSETVDRAFSQMKAAIRANYSNPPAHGASVVATILSNDALRAIWEQELTDMRQRIQRMRQLFVNTLQEKGANRDFSFIIKQNGMFSFSGLTKEQVLRLREEFGVYAVASGRVNVAGMTPDNMAPLCEAIVAVL |  |  |  |  | 120 ± 10 | 0.263 | 2200 | 420 ± 40 | 17.3 ± 0.4 | 41000 ± 4000 | 
7 | E. coli aspartate aminotransferase (AAT) (Escherichia coli K-12; K37F/N64T/T43I) (protein, full-length, N-terminal His-tag, expressed in E. coli BL21-Gold (DE3), Ni-NTA purified; 90 kDa homodimer, PLP-dependent) MFENITAAPADPILGLADLFRADERPGKINLGIGVYFDETGKIPVLTSVKKAEQYLLENETTKTYLGIDGIPEFGRCTQELLFGKGSALINDKRARTAQTPGGTGALRVAADFLAKNTSVKRVWVSNPSWPNHKSVFNSAGLEVREYAYYDAENHTLDFDALINSLNEAQAGDVVLFHGCCHNPTGIDPTLEQWQTLAQLSVEKGWLPLFDFAYQGFARGLEEDAEGLRAFAAMHKELIVASSYSKNFGLYNERVGACTLVAADSETVDRAFSQMKAAIRANYSNPPAHGASVVATILSNDALRAIWEQELTDMRQRIQRMRQLFVNTLQEKGANRDFSFIIKQNGMFSFSGLTKEQVLRLREEFGVYAVASGRVNVAGMTPDNMAPLCEAIVAVL |  |  |  |  | 27 ± 3 | 0.9 | 33000 ± 4000 | 900 ± 60 | 22.8 ± 0.4 | 25000 ± 2000 | 
8 | E. coli aspartate aminotransferase (AAT) (Escherichia coli K-12; K37F/N64S/T43C) (protein, full-length, N-terminal His-tag, expressed in E. coli BL21-Gold (DE3), Ni-NTA purified; 90 kDa homodimer, PLP-dependent) MFENITAAPADPILGLADLFRADERPGKINLGIGVYFDETGKCPVLTSVKKAEQYLLENETTKSYLGIDGIPEFGRCTQELLFGKGSALINDKRARTAQTPGGTGALRVAADFLAKNTSVKRVWVSNPSWPNHKSVFNSAGLEVREYAYYDAENHTLDFDALINSLNEAQAGDVVLFHGCCHNPTGIDPTLEQWQTLAQLSVEKGWLPLFDFAYQGFARGLEEDAEGLRAFAAMHKELIVASSYSKNFGLYNERVGACTLVAADSETVDRAFSQMKAAIRANYSNPPAHGASVVATILSNDALRAIWEQELTDMRQRIQRMRQLFVNTLQEKGANRDFSFIIKQNGMFSFSGLTKEQVLRLREEFGVYAVASGRVNVAGMTPDNMAPLCEAIVAVL |  |  |  |  | 68 ± 7 | 6 | 88000 ± 9000 | 12000 ± 1000 | 87 ± 3 | 7200 ± 700 | 
9 | E. coli aspartate aminotransferase (AAT) (Escherichia coli K-12; K37Y/N285S/N64L/T104S/T43I/V35L) (protein, full-length, N-terminal His-tag, expressed in E. coli BL21-Gold (DE3), Ni-NTA purified; 90 kDa homodimer, PLP-dependent) MFENITAAPADPILGLADLFRADERPGKINLGIGLYYDETGKIPVLTSVKKAEQYLLENETTKLYLGIDGIPEFGRCTQELLFGKGSALINDKRARTAQTPGGSGALRVAADFLAKNTSVKRVWVSNPSWPNHKSVFNSAGLEVREYAYYDAENHTLDFDALINSLNEAQAGDVVLFHGCCHNPTGIDPTLEQWQTLAQLSVEKGWLPLFDFAYQGFARGLEEDAEGLRAFAAMHKELIVASSYSKNFGLYNERVGACTLVAADSETVDRAFSQMKAAIRANYSSPPAHGASVVATILSNDALRAIWEQELTDMRQRIQRMRQLFVNTLQEKGANRDFSFIIKQNGMFSFSGLTKEQVLRLREEFGVYAVASGRVNVAGMTPDNMAPLCEAIVAVL |  |  |  |  | 59 ± 7 | 1.32 | 22000 ± 3000 | 270 ± 30 | 9 ± 0.2 | 33000 ± 4000 | 
10 | wild-type E. coli aspartate aminotransferase (enzyme, imine bond between PLP and K246 (internal aldimine), aspartate aminotransferase (AAT), Escherichia coli, UniProt P00509; Gene with N-terminal His-tag in pET-45b; also called AAT; WT; source: E. coli BL21-Gold (DE3), purified (Ni-NTA, gel filtration)) MFENITAAPADPILGLADLFRADERPGKINLGIGVYKDETGKTPVLTSVKKAEQYLLENETTKNYLGIDGIPEFGRCTQELLFGKGSALINDKRARTAQTPGGTGALRVAADFLAKNTSVKRVWVSNPSWPNHKSVFNSAGLEVREYAYYDAENHTLDFDALINSLNEAQAGDVVLFHGCCHNPTGIDPTLEQWQTLAQLSVEKGWLPLFDFAYQGFARGLEEDAEGLRAFAAMHKELIVASSYSKNFGLYNERVGACTLVAADSETVDRAFSQMKAAIRANYSNPPAHGASVVATILSNDALRAIWEQELTDMRQRIQRMRQLFVNTLQEKGANRDFSFIIKQNGMFSFSGLTKEQVLRLREEFGVYAVASGRVNVAGMTPDNMAPLCEAIVAVL |  |  |  |  |  |  |  |  |  |  | 2
